Where a chain is given by its changes, count along the chain named. In names and notes the source's numbering stands. Each block holds one binder with its values, some of them ahead of it.
Columns and labels:
[1] = molecular target: KDR receptor with a gD tag at the N-terminus, on CHO cells (UniProt P35968 20-1356); test: cell-based or functional assay
[2] = molecular target: KDR Receptor (RIA of Example 11) (UniProt P35968 20-764, limits assumed); test: RIA, essentially as in Muller et al. 1997
[3] = molecular target: FLT-1 Receptor (RIA of Example 11) (UniProt P17948 27-758, limits assumed); test: RIA, essentially as in Muller et al. 1997
[4] = molecular target: KDR receptor on human umbilical vein endothelial cells (HUVEC) (human, UniProt P35968 20-1356); test: cell-based or functional assay
[5] = molecular target: T1, Flt-IgG (a chimeric Flt-human Fc molecule) (human, UniProt P17948 27-758, limits assumed); test: competition ELISA: displacement of biotinylated native VEGF from Flt-IgG
T1 construct: not shown: human IgG Fc
Experimental: The wells were filled with 100 μl of a solution containing Flt-IgG (a chimeric Flt-human Fc molecule) at 50 ng/ml in assay buffer (0.5% BSA, 0.05% Tween 20 in PBS). The wells were incubated at room temperature for 1 hour and then washed three times in wash buffer (0.05% Tween 20 in PBS).
Aliquots of the mixture (100 μl) were added to the precoated microtiter wells and the plate was incubated for 2 hours at room temperature. […] The wells were then incubated with […] (0.2 g/liter, Kirkegaard & Perry Laboratories, Gaithersburg, Md.) for about 10 minutes at room temperature. Absorbance was read at 450 nm on a Vmax plate reader (Molecular Devices, Menlo Park, Calif.).
(§1) Titration curves were fit with a four-parameter nonlinear regression curve-fitting program (KaleidaGraph, Synergy Software, Reading, Pa.).

[6] = molecular target: T2, KDR (1-3) (UniProt P35968 20-327, limits assumed); test: competition ELISA: displacement of biotinylated native VEGF (8-109) from KDR (1-3)
T2 construct: domain: KDR (1-3); Soluble KDR (1-3) at 1 ug/ml, captured on anti-KDR antibody MAKD5; also called KDR (1-3) monomer
Experimental: (§2) Aliquots of this mixture (100 μl) were added to the precoated microtiter wells and the plate was incubated for 1 hour at room temperature.
(§3) The wells were then incubated with 3,3′,5,5′-tetramethyl benzidine (0.2 gram/liter; Kirkegaard & Perry Laboratories, Gaithersburg, Md.) for about 10 minutes at room temperature. Absorbance was read at 450 nm on a Vmax plate reader (Molecular Devices, Menlo Park, Calif.).
as §1

[7] = molecular target: T2, KDR (1-3); test: competition ELISA: displacement of biotinylated native VEGF (8-109) from KDR (1-3); concentration at midpoint absorbance
Experimental: as §2, §3, §1

[8] = molecular target: T2, KDR (1-3); test: competition ELISA (Example 7): serially diluted unlabelled native VEGF (8-109) incubated with biotinylated native VEGF (8-109) (84 nM) and KDR (1-3) (1 ug/ml), complex captured on anti-KDR antibody MAKD5, detected with peroxidase-streptavidin, OD 450
Experimental: as §2, §3, §1

KDR receptor on human umbilical vein endothelial cells (HUVEC), sequence (P35968 20-1356): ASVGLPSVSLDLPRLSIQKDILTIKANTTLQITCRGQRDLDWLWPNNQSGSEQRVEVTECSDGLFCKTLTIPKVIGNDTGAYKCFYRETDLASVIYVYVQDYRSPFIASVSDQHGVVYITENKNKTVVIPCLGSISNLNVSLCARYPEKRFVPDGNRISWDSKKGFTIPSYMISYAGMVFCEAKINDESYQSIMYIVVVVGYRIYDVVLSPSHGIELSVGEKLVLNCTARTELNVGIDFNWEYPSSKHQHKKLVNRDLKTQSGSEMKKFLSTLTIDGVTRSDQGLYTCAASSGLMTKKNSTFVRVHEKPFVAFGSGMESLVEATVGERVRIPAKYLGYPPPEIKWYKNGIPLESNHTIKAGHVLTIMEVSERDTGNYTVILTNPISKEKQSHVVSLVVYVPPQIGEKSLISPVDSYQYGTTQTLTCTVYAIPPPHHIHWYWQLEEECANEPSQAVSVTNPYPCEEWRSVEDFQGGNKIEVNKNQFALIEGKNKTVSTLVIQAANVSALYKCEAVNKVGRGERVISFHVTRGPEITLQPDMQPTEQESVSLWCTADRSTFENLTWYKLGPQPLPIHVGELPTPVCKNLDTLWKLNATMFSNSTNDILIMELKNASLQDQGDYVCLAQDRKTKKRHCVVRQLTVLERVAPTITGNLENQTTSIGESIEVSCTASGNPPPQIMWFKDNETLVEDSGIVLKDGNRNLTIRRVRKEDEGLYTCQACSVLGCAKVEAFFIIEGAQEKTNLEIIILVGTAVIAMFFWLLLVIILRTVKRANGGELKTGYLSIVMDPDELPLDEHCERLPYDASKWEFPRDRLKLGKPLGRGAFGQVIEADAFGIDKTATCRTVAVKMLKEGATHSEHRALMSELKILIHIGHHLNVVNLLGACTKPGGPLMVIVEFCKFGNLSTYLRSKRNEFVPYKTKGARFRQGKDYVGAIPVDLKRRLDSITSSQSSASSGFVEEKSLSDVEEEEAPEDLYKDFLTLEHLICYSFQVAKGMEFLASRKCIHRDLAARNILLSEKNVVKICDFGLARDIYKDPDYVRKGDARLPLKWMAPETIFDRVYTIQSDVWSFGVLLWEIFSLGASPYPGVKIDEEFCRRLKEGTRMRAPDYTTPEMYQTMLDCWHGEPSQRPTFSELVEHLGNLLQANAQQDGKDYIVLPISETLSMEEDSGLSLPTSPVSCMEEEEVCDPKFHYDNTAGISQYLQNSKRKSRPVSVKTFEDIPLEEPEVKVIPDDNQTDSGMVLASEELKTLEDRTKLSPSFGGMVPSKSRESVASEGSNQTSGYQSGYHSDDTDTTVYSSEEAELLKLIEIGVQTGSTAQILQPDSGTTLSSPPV
T2 sequence (P35968 20-327 limits assumed): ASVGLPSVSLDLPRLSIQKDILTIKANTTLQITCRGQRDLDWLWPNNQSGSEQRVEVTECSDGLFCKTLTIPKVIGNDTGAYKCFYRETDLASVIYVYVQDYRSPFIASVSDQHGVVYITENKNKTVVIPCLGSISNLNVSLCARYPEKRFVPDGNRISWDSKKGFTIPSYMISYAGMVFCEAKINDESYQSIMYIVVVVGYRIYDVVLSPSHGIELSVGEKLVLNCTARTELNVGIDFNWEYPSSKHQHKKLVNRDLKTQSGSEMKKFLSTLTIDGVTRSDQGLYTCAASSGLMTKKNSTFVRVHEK
T1 sequence (P17948 27-758 limits assumed, change not shown): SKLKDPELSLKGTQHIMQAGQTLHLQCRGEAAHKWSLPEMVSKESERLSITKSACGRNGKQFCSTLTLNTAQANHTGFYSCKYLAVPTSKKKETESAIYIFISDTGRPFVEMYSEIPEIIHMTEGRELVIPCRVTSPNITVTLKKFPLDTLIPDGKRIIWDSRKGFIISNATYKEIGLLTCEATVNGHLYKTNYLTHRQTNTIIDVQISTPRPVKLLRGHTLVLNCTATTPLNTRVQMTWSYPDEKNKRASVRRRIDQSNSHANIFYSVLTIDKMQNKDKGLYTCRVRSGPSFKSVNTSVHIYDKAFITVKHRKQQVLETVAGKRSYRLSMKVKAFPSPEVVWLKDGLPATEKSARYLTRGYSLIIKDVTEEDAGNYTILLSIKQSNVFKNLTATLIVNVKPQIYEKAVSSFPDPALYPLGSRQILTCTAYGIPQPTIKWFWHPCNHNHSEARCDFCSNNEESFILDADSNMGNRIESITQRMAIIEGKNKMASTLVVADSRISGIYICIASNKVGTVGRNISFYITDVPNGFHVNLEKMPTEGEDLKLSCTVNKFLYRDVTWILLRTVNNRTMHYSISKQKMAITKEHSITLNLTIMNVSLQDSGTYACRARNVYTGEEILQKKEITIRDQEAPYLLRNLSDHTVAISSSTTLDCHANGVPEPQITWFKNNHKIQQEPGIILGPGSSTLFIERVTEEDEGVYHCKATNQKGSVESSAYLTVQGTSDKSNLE
KDR Receptor (RIA of Example 11), sequence (P35968 20-764 limits assumed): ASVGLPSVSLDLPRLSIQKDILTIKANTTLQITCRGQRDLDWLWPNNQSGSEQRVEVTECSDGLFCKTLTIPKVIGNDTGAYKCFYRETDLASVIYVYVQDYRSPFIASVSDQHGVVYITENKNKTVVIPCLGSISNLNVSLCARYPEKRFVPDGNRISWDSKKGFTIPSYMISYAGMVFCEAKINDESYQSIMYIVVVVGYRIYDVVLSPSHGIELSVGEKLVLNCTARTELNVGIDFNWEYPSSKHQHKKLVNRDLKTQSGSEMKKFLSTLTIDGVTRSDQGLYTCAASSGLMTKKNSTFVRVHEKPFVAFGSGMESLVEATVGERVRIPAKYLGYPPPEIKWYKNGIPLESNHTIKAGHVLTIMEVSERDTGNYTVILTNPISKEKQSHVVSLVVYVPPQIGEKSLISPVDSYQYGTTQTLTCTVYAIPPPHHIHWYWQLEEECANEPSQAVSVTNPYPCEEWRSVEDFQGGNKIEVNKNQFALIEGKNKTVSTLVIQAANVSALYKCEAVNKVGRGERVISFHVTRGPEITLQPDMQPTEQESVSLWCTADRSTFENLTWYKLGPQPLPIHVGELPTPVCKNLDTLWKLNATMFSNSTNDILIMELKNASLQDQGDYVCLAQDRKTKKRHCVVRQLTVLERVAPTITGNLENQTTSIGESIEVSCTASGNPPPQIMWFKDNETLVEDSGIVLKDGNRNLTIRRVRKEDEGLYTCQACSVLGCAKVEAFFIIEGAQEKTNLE
FLT-1 Receptor (RIA of Example 11), sequence (P17948 27-758 limits assumed): as the sequence (P17948 27-758 limits assumed, change not shown) above

B1: LK-VRB-1s* (ligand)
chain: APMAEGGGQNHHEVVKFEDVLRRSSCHPIETLVDIFQEYPDEIEYIFKPSCVPLMRCGGCCNDEGLECVPTEESNITMQIMRIKPHQGQHIGEMSFLQHNKCECRPKKD
- Phosphorylation-Inducing Activity (KIRA), ratio to native VEGF (8-109) [1]: 0.5 fold
- relative binding affinity (ratio to native VEGF 165) [2]: 20 fold
- relative binding affinity (ratio to native VEGF 165) [3]: 14000 fold
- Endothelial Cell Proliferation Activity (HUVEC), ratio to native VEGF (8-109) [4]: 0.2 fold
- relative binding affinity (ratio to native VEGF (8-109)) [5]: 6000 fold
- relative binding affinity (ratio to native VEGF (8-109)) [6]: 1 fold

B2: LK-VRB-19s (ligand)
chain: B1 chain with L21Y, D63S, G65M, L66R
- IC50 [7]: 7 nM
- relative binding affinity (ratio to native VEGF (8-109)) [6]: 7 fold

B3: LK-VRB-8s* (ligand)
chain: B1 chain with E18M, R22Q, S25Y, D63S, G65M, L66R
notes: 'Y2IL' read as Y21L (codon CTC)
- Endothelial Cell Proliferation Activity (HUVEC), ratio to native VEGF (8-109) [4]: 1 fold
- relative binding affinity (ratio to native VEGF (8-109)) [6]: 0.5 fold

B4: LK-VRB-15s (ligand)
chain: B1 chain with E18M, R22Q, D63S, G65M, L66R
- relative binding affinity (ratio to native VEGF (8-109)) [6]: 2 fold

B6: LK-VRB-11s (ligand)
chain: B1 chain with R22Q, S25Y, D63S, G65M, L66R
- relative binding affinity (ratio to native VEGF (8-109)) [6]: 2 fold

B8: LK-VRB-10s (ligand)
chain: B1 chain with E18M, L21Y, R22Q, D63S, G65M, L66R
- relative binding affinity (ratio to native VEGF (8-109)) [6]: 0.5 fold

B9: LK-VRB-4s (ligand)
chain: B1 chain with F17I, L21F, R22E, S25I
notes: the codon printed for Y25I is CAC (His)
- Phosphorylation-Inducing Activity (KIRA), ratio to native VEGF (8-109) [1]: 0.5 fold
- relative binding affinity (ratio to native VEGF (8-109)) [5]: 200 fold
- relative binding affinity (ratio to native VEGF (8-109)) [6]: 1 fold

B10: LK-VRB-17s (ligand)
chain: B1 chain with S25Y, D63S, G65M, L66R
- relative binding affinity (ratio to native VEGF (8-109)) [6]: 3 fold

B11: LK-VRB-9s (ligand)
chain: B1 chain with E18M, L21Y, S25Y, D63S, G65M, L66R
- relative binding affinity (ratio to native VEGF (8-109)) [5]: 300 fold
- relative binding affinity (ratio to native VEGF (8-109)) [6]: 0.5 fold

B14: LK-VRB-7s* (ligand)
chain: B1 chain with L21Y, R22Q, S25Y, D63S, G65M, L66R
- Endothelial Cell Proliferation Activity (HUVEC), ratio to native VEGF (8-109) [4]: 1 fold
- relative binding affinity (ratio to native VEGF (8-109)) [6]: 1 fold

B15: LK-VRB-13s (ligand)
chain: B1 chain with L21Y, R22Q, D63S, G65M, L66R
- relative binding affinity (ratio to native VEGF (8-109)) [6]: 14 fold

B16: LK-VRB-16s (ligand)
chain: B1 chain with E18M, L21Y, D63S, G65M, L66R
- relative binding affinity (ratio to native VEGF (8-109)) [6]: 0.6 fold

B18: LK-VRB-12s (ligand)
chain: B1 chain with L21Y, S25Y, D63S, G65M, L66R
- relative binding affinity (ratio to native VEGF (8-109)) [6]: 0.4 fold

B19: LK-VRB-14s (ligand)
chain: B1 chain with E18M, S25Y, D63S, G65M, L66R
- relative binding affinity (ratio to native VEGF (8-109)) [6]: 0.5 fold

B20: LK-VRB-3s (ligand)
chain: B1 chain with F17I, L21F, R22K
- Phosphorylation-Inducing Activity (KIRA), ratio to native VEGF (8-109) [1]: 1 fold
- relative binding affinity (ratio to native VEGF (8-109)) [5]: 400 fold
- relative binding affinity (ratio to native VEGF (8-109)) [6]: 1 fold

The next lines start with the values.

- relative binding affinity (ratio to native VEGF (8-109)) [6]: 2 fold
B5: LK-VRB-20s (ligand)
chain: B1 chain with E18M, D63S, G65M, L66R

- relative binding affinity (ratio to native VEGF (8-109)) [6]: 4 fold
B7: LK-VRB-22s (ligand)
chain: B1 chain with G65M

- relative binding affinity (ratio to native VEGF (8-109)) [6]: 10 fold
B12: LK-VRB-24s (ligand)
chain: B1 chain with D63S, G65M

- relative binding affinity (ratio to native VEGF (8-109)) [6]: 11 fold
B13: LK-VRB-23s (ligand)
chain: B1 chain with L66R

- relative binding affinity (ratio to native VEGF (8-109)) [6]: 3 fold
B17: LK-VRB-21s (ligand)
chain: B1 chain with D63S

- relative binding affinity (ratio to native VEGF (8-109)) [6]: 23 fold
B21: LK-VRB-26s (ligand)
chain: B1 chain with G65M, L66R

- relative binding affinity (ratio to native VEGF (8-109)) [6]: 4 fold
B22: LK-VRB-25s (ligand)
chain: B1 chain with D63S, L66R

- IC50 (read off the curve) [8]: ~2 nM
B23: Native VEGF (8-109) (ligand)
chain: GQNHHEVVKFMDVYQRSYCHPIETLVDIFQEYPDEIEYIFKPSCVPLMRCGGCCNDEGLECVPTEESNITMQIMRIKPHQGQHIGEMSFLQHNKCECRPKKD
